Target: apolipoprotein E on the surface of very low-density lipoproteins (human) (UniProt P02649)
Experiment: AFM-based force spectroscopy; DENV C covalently attached to the AFM tip; VLDL adsorbed on freshly cleaved mica; TEE-KCl buffer pH 7.4 (20 mM Tris-HCl, 100 mM KCl, 1 mM EDTA, 1 mM EGTA); loading rate 4 nN/s; with or without rabbit anti-human APOE antibody (1 or 100 ug/L) or an isotype-matched control antibody

Sequence of UniProt P02649 (P02649 19-317): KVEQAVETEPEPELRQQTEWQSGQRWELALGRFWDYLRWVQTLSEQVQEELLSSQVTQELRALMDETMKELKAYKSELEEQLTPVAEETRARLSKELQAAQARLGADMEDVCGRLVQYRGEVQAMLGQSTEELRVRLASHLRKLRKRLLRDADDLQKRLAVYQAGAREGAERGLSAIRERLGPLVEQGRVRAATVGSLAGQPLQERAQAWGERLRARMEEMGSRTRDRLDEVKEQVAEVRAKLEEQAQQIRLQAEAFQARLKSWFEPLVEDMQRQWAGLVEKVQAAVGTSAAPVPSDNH

Substance: Dengue virus capsid (C) protein (natural protein)
- rupture force, 1st Gaussian peak (DENV C-VLDL, no antibody): 29.7 pN
- rupture force, 2nd Gaussian peak (DENV C-VLDL, no antibody): 52.1 pN

Reference: paper PMC4498383
